Biological target: T1, rArgR (Streptococcus suis CZ130302) (UniProt Q3C167)
T1 sequence: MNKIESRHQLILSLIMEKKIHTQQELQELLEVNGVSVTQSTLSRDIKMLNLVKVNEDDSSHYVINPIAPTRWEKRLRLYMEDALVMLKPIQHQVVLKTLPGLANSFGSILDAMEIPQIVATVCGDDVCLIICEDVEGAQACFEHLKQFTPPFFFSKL
Test: EMSA

With “TGGATGGTTTGACATGATCTGTCCTCCTTGTAGATTTATACATGATGGGAAACGAGGAGGACCGTACGCTTTCCTGCCTCTCATTTCCTCTTTACATCCATAGTTTAACAGAGCAAAAAAACAAAAACTTGAAAACGCTCGCATTTATGTTGAGAAATTCTTCACATTTTCAACCTTATTTATAAATAATTATCGATTATATCGCCTATATTATGCATAATTCTTTCTATTATATCATTATGTGAATTTT (double strand) [arcA promoter 250 bp]” the binding was “binds”.

Source: PMC10841013
